Among the data in US20230340098A1 are Kd and EC50 (read off the curve) values, retold here.

For experiment [1], the target named is human GARP/TGFβ1 complex (protein used in ELISA and Octet) (human) (UniProt Q14392). As to the kind of experiment: Octet. A general note: Biolayer interferometry detects binding as a change in optical thickness at a sensor tip.
In experiment [2] the target is human GARP protein not in any GARP/TGFβ1 complex (protein used in ELISA and Octet) (human) (UniProt Q14392). As to the kind of experiment: Octet.
Experiment [3] has as its target human GARP/latent TGFβ1 complex on cells (human) (UniProt Q14392). As to the kind of experiment: flow cytometry on human GARP/latent TGFβ1 transfected CHO-S cells, goat anti-human IgG(H+L) FITC.

Sequence of human GARP protein not in any GARP/TGFβ1 complex (protein used in ELISA and Octet) (human) (Q14392 20-627 limits assumed, one chain of several): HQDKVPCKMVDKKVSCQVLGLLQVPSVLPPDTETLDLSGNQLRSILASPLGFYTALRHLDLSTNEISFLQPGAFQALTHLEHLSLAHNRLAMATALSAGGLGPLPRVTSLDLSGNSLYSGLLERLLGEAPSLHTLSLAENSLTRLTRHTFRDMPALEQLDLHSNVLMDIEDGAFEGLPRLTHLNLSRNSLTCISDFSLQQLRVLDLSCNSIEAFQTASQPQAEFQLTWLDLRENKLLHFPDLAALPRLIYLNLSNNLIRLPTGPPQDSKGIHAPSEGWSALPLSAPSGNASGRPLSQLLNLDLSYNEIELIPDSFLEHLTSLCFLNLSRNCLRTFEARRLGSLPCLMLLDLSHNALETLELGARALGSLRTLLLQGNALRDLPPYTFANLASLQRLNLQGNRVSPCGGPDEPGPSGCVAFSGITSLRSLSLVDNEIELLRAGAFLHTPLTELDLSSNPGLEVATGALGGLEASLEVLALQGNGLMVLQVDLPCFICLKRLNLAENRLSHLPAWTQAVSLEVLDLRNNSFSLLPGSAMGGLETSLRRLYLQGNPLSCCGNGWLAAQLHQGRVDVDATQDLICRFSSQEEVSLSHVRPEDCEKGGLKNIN

One may read the Kd as the concentration at which binding is half-saturated. A high value points to weaker binding. For the substance “GARP ref. Ab2, a DS-1005a analog (antibody)”, the Kd in experiment [1] was found to be 4.12 nM; in experiment [2], 2.02 nM.
The term EC50 (read off the curve) denotes the concentration giving half of the maximal effect. “GARP ref. Ab1, an ABBV-151 analog (antibody)” yielded a Kd in experiment [1] of 0.428 nM. The substance also displayed an EC50 (read off the curve) in experiment [3] of 0.3 µg/mL.
